{
  "source": "the DeepSol protein solubility set",
  "test": "soluble on expression in E. coli; label from the status in PepcDB or PDB records",
  "data": [
    {"sequence": "MAHHHHHHMPPQRQCSHCEKEKAVLKRPRNGKLLCQRCFFNLFEAEVHETIMKEKLFKPGDIVACGASGGKDSTVLIHLMKLLNEQHEYGIQLLLLSIDEGIAGYRDDSLKTVHRNAEVYNLPLRVLSYKELYGWTMDEVVKVTGLRSSCTYCGVFRRQALDRGAAMLGATKVVTGHNADDLAETILMNILRGDLPRLSRCTSAITSGESLLPRVKPLKYAYEKEIVLYAHFKKLDYFTTECTYSKEAFRSEARTLLKNIEILQPRCILDTIRTGEQLRVKEQECATENPPSACTRCGYVTSQSLCRACVLLQGLNMNGPAVCVREQPQPQQQQQQQNVEVEGQ", "values": [
      {"measurement": "soluble on expression in E. coli", "result": "not soluble"}
    ]},
    {"sequence": "MFKIVYPNAKDFFSFINSITNVTDSIILNFTEDGIFSRHLTEDKVLMAIMRIPKDVLSEYSIDSPTSVKLDVSSVKKILSKASSKKATIELTETDSGLKIIIRDEKSGAKSTIYIKAEKGQVEQLTEPKVNLAVNFTTDESVLNVIAADVTLVGEEMRISTEEDKIKIEAGEEGKRYVAFLMKDKPLKELSIDTSASSSYSAEMFKDAVKGLRGFSAPTMVSFGENLPMKIDVEAVSGGHMIFWIAPRLLEHHHHHH", "values": [
      {"measurement": "soluble on expression in E. coli", "result": "soluble"}
    ]},
    {"sequence": "MGSDKIHHHHHHMRTSTHAEVLTYSDEQTSVRHLQNSAPLALKHTISPAEIRDNLPAGQGGVGFLFHATDWDTLSFSFHNVKHRNASFEEELWRTKPFIASPIYSGSQIIGANIACPVPLELWLGSPRGIKRFRETQFFPALELARQAGLNMVAMGASTPYACNYGALPRDTRPPHITTGHAATAAMLKDWAMHCCNELDLEFGKSKLALFGAAGRLGTTVAKYALYKDAPRELVLIDLPDKVNLLTEQAKELMASDLLGKTRVSVHTFSPHTPLPDFDGAILASSTSVPYLTAADLRRAQFWIDDSHPRAASVEAELASRGHTLYIECFARGPAGLNTTFPFRLPTTRDCYTCFAEGYSAWQEGIASDFIIGSPPVWSVSYTHSLLKKYGFAVGPFHGKNGSPITLDTQLRGKQELMSS", "values": [
      {"measurement": "soluble on expression in E. coli", "result": "not soluble"}
    ]},
    {"sequence": "MLRTYTVLLLIAHAHVQSHFYYPCSARIFWKIHALINNTDGFVTREVKLGYFIGYKEHRSSAERKANAHGFHGFFFSEITHTFSEMIESLEHANTGAFDDIRTDSETHFFDLDDAERMIERDSIERTNNLLENSRKFKNVRDETHRGKTRRGETHRGETHRGETHRDETHRGETHRDETHRGETHRGETHRGETHRGETHLDETHRGETHRGDTHRGETHRGETHRDDTFRGETLRGETHLDETHRGETHRDETHRGETHRDETHRDETHRDETHRGETHRGETHRGETHRDDTFRGETFRGETHRDETHRGETHRDETHRGETHRGETHRGETHRGETHRGETHRGETHRGETHRGETHRDETFRGETHRGETHRGETHRDDTHRGETHRGETHRGETHRGETHRGETHRGETHRGETHRGETHRGETHRGETHRGETHCDDTHRGETRRAETHRGETHRGETHRDETHRDDTHRGETHRGETHRGETHRGETHRGETHRDETHRGETHRGDTHRGETHRGETHRGETHRGETHRGETHRGETHRGETHRGETHRGETHRDDTHRGETRRAETHRGETHRGETHRDETHRGETHRGETHRGETHRGETHRGETHRDETHRDDTFRGETLRGETHRDETHRGETHRDDTFRGETLRGETHRDETHRGETHRDETHRGETHRGETHRGETHRGETHRGETHRGETHRGETLRGETRCDDTQRGETRRAETHRGETLRGETHRDESHRGETHRGETHRGETHRGETHRGETHRDETHRDDTFRGETLRGETHRDETHRGETHRDDTFRGETLRGETHLDETHRGETHRDETHRGETHRGETHRGETHRDETHRGETHRGETHRGETHRGETHRAETFRGETHRAETHRGETNRGETHRGETHRGETHRGETNRGETHRGETHRGETHRGDTHRAETHRDETHRGETNRDETHRGETHRGETHRGDTNRGETHRGETFRGETHRGETHRGETHRGETHRGETHRGETHRGETHRGETHRDDTFRGETHRGETHCGETHRGETHRGETLRGETLRGETHRDETHRGETLRDETHRGETLRGETHRGETLRGETHRGETHRDDTFRGETLRGETHLDETHRGETHRDETHRGETHRGETHRGETHRGETHRGETHRGETHRGETHRDETHRDDTFRGETLRGETLRDETHRGETHRDDTFRGETHRDETHRGETLRGETHRDETHRDETHRDDTHRGETLRGETHLDETHRGETHRDETHRGETHLDETHRGETHRDETHRGETHRDETHRGETHRGETHVWKARENSGMF", "values": [
      {"measurement": "soluble on expression in E. coli", "result": "not soluble"}
    ]},
    {"sequence": "MNENDGKNSAEKHNNSQDEGSIQPDKTQLDDVADDAEKKSEKSSNCMIWSQNVLKKAKISNMTREFRNNKEYKPNVTTSISEKMMDKNRYRHIFCGDDNRVVLKERDPSNDYIHASWMVMPDGFQFISTQGPIKNTIADFWHMVYTEKCHVIVMLCQYIEEDQEKCQRYFSDTSEKEYGDYRVKVVEKTVELWNPVKVTGIQVQKKNCPTKHMVYHYFYYDWHDQVAPLDPAPMIKMYKAVLNKSSSKPIVVHCSAGVGRTSTFVGIYLSQIMIRENSSVDMVEILKRLRTMRLGAVQSQLQYVYLVVLMIELFIDDKIIKRNANYESLLKKYADVTRKVTAAIMEEEEKRRQRKKREEEKEKEQEKESPATKEEKKKENGLKTNRQRDNREAPSKPPRKNPEELARSKLQGPRKLTLKNRDGNAEEPTAKDNEERSTAEDKSKNRQKSVYVKMPLSSKEKGSKHERAKQGARKNAARKAKKKPSVTGNY", "values": [
      {"measurement": "soluble on expression in E. coli", "result": "not soluble"}
    ]},
    {"sequence": "MKVERVERVEDIDFEGLLKEGYTCFFFDFDNTLVPWKESKLEESKRRLLIELAKKARVVVVSNGKPRKVDLPVMFIWRAGKPFSLKLWRFLKKEKIDPKRCVMIGDQIFTDVLTGKIFGFRVIKVEPISAKEFFGTKILRFFEKILEGKVR", "values": [
      {"measurement": "soluble on expression in E. coli", "result": "not soluble"}
    ]},
    {"sequence": "QSEPELKLESVVIVSRHGVRAPTKATQLMQDVTPDAWPTWPVKLGWLTPRGGELIAYLGHYQRQRLVADGLLAKKGCPQSGQVAIIADVDERTRKTGEAFAAGLAPDCAITVHTQTDTSSPDPLFNPLKTGVCQLDNANVTDAILSRAGGSIADFTGHRQTAFRELERVLNFPQSNLCLKREKQDESCSLTQALPSELKVSADNVSLTGAVSLASMLTEIFLLQQAQGMPEPGWGRITDSHQWNTLLSLHNAQFYLLQRTPEVARSRATPLLDLIKTALTPHPPQKQAYGVTLPTSVLFIAGHDTNLANLGGALELNWTLPGQPDNTPPGGELVFERWRRLSDNSQWIQVSLVFQTLQQMRDKTPLSLNTPPGEVKLTLAGCEERNAQGMCSLAGFTQIVNEARIPACSL", "values": [
      {"measurement": "soluble on expression in E. coli", "result": "soluble"}
    ]},
    {"sequence": "MAKKLSKKGDIQRDHFALISSFPLNQTPETKSEKLQKNLLLHKYYQGHRERLRRRYLKSKGNAIEDYEYLELLLFRTIPRANTKPIAKSLIAHFGSLADVLGADIHRLQEVQGCGPATALDLKIISDVAGRLARAQLFKRDIFSSWDQVLAYCKAVMAHETREQFRVLFLDKKNGLLADEVQQTGTIDHTPVYPREVISRALQLSASGLILVHNHPSGDATPSKADVTMTYRLKDAANALGITVHDHLIIARNNYTSFKELKFI", "values": [
      {"measurement": "soluble on expression in E. coli", "result": "not soluble"}
    ]},
    {"sequence": "MSEEPVAAPGTISHPVYKLKRNWTWWYLNDERNKSWEERLKNVKTFSSVGEFWALHDSIKPPSGLNPPSDYNVFRDGIEPMWEVPQNQNGGRWLITIEKGRTPEIMDTIWTEILMAMIGEQFSDDIESLCGIVCNVRGKGSKISVWTTNSADDGANLRIGGVLKQVLNNASMIHQRPLYDVLRYEDHESCQKKTSSGVKAKHAIYAVEPREEKAPVPVSTETPATPAT", "values": [
      {"measurement": "soluble on expression in E. coli", "result": "not soluble"}
    ]},
    {"sequence": "MGSDKIHHHHHHMICEFSESVLDGIADALVDRGYICVDNLFEPEVVVRLRDKVFTKADETFKPASIGRGQEQHRNTDIRRDSIRWLEPQCAVDNQYLSLMESLKNGLNRRLFMGLFDYESHYALYRPGAFYKKHVDALKGSQNRILTTVFFMNPEWQPDHGGVLKLYEEDDSLIEELAPLMGRLVIFLSERFPHEVMPTTVDRASIAGWFRVAGSQHGF", "values": [
      {"measurement": "soluble on expression in E. coli", "result": "not soluble"}
    ]},
    {"sequence": "SLRKERARSAEEPWTQNQQKLLELALQQYPRGSSDCWDKIARCVPSKSKEDCIARYKLLV", "values": [
      {"measurement": "soluble on expression in E. coli", "result": "soluble"}
    ]},
    {"sequence": "GSHGGSMKAANASSAEAYRVLSRAFRFDNEDQKLWWHSTAPMFAKMLETANYTTPCQYQYLITYKECVIPSLGCYPTNSAPRWLSILTRYGTPFELSLNCSNSIVRYTFEPINQHTGTDKDPFNTHAIWESLQHLLPLEKSIDLEWFRHFKHDLTLNSEESAFLAHNDRLVGGTIRTQNKLALDLKDGRFALKTYIYPALKAVVTGKTIHELVFGSVRRLAVREPRILPPLNMLEEYIRSRGSKSTASPRLVSCDLTSPAKSRIKIYLLEQMVSLEAMEDLWTLGGRRRDASTLEGLSLVRELWDLIQLSPGLKSYPAPYLPLGVIPDERLPLMANFTLHQNDPVPEPQVYFTTFGMNDMAVADALTTFFERRGWSEMARTYETTLKSYYPHADHDKLNYLHAYISFSYRDRTPYLSVYLQSFETGDWAVANLSESKVKCQDAACQPTALPPDLSKTGVYYSGLH", "values": [
      {"measurement": "soluble on expression in E. coli", "result": "soluble"}
    ]},
    {"sequence": "MGSDKIHHHHHHLRVGEVAPTAIDLHIHTIESDGSLSVAGVIQEAAERGVRVLALTDHETTNGVPEAMELGQKHNLNIIPGVELITAFKGKEVHLLGYFSYAAMMHSDLQSRLKELRQQRTYLAFEMVKRLQKDGFTLKWAEVEKIANPEGAVSKGHIMRALHEHENGTIQWPVIAKLFQPYGIAYLPFLEHPFEEAVDLIYTCGGVPVLAHPGLLRDDRMVGELLSYLPMGLEVYYGYWEQREALIQNYKTIAQDKAILTTGGSDFHGLFGPVKLGEIEVPEQCSRELQTFLKLDF", "values": [
      {"measurement": "soluble on expression in E. coli", "result": "not soluble"}
    ]},
    {"sequence": "MKLIIAVVQDKDSNRLSEALVKANYRATKLASTGGFLKAGNTTFLIGTEDEHVEEVMSIIKDNCKSRDQLVAPISPMGGNADSYVPYPVEVQVGGATVFVLPVEQFEQY", "values": [
      {"measurement": "soluble on expression in E. coli", "result": "not soluble"}
    ]},
    {"sequence": "MKSEIIAVGTEILTGQIVNTNSQFLSEKFAELGIDVYFQTAVGDNEERLLSVLKIAKERSDLIVLCGGLGPTEDDLTKQTLAKFLKRELVFDKTAQERLDEFFASRPTSMRTPNNECQAQIIAGSQPLSNKTGLAVGGLLEADGVTYVVLPGPPSELKPMVNKELLPYLSKTSEKLYSRVLRFFGIGESHLVTLLHDLIAEQTDPTIAPYAKTGEVTIRLSTKAHRQKEADSKLDKLEKKIITIDNLADYFYGYGEENSLPQVVFDLLKEKGKTITAAESLTAGLFQARLADFAGASDIFKGGFITYSIEEKARMLGIPFEDLQLHGVVSAFTAEKMAERSRQLTQADLAISLTGVAGPDSLEGQPAGTVFIGLSSSKRTMAIKVLIGGRSRSDVRYIAVLHAFNLVRQTLLSHKNLV", "values": [
      {"measurement": "soluble on expression in E. coli", "result": "soluble"}
    ]},
    {"sequence": "MNIFTEAAKLEEQNCPFAMAQIVDSRGSTPRHSAQMLVRADGSIVGTIGGGMVERKVIEESLQALQERKPRLFHGRMARNGADAVGSDCGGAMSVFISVHGMRPRLVLIGAGHVNRAIAQSAALLGFDIAVADIYRESLNPELFPPSTTLLHAESFGAAVEALDIRPDNFVLIATNNQDREALDKLIEQPIAWLGLLASRRKVQLFLRQLREKGVAEEHIARLHAPVGYNIGAETPQEIAISVLAEILQVKNNAPGGLMMKPSHPSGHQLVVIRGAGDIASGVALRLYHAGFKVIMLEVEKPTVIRCTVAFAQAVFDGEMTVEGVTARLATSSAEAMKLTERGFIPVMVDPACSLLDELKPLCVVDAILAKQNLGTRADMAPVTIALGPGFTAGKDCHAVIETNRGHWLGQVIYSGCAQENTGVPGNIMGHTTRRVIRAPAAGIMRSNVKLGDLVKEGDVIAWIGEHEIKAPLTGMVRGLLNDGLAVVGGFKIGDIDPRGETADFTSVSDKARAIGGGVLEALMMLMHQGVKATKEVLEVALEHHHHHH", "values": [
      {"measurement": "soluble on expression in E. coli", "result": "not soluble"}
    ]},
    {"sequence": "MKRGKQTCKILKDIRRQIAEANDIEFITSECQYQGDCLGTCPKCEAEVRYLEQQLERKRMAGKAITILGISAGLVAMAPMTSCSSSPNKGTNQETISDSTNASVMFGEICPTPVEDTIPMVEKDTVNKQELPELPQEMGLIEITPISGDIITVKDSLSEKDSLTDVLEVAAVMPEFPGGARELMKFISANIRYPSMSQGGVCQGRAIVQFIVDKEGNIVQPKVVRGVDPYLDKEALRVVGLMPKWKPGELDDGTKVAVRFTIPVMFRLQ", "values": [
      {"measurement": "soluble on expression in E. coli", "result": "not soluble"}
    ]}
  ]
}
